Where two headings read alike, the source gives them in different places.
How the values were obtained:
Assay in all cases: analytical size exclusion chromatography
SuhB [1] = target: T1, SuhB (Escherichia coli, UniProt P0ADG4 1-267)
[2] = target: NusB;NusEdelta (S10 lacking the ribosome binding loop) (Escherichia coli;Escherichia coli, UniProt P0A780;P0A7R5 1-139;1-45+68-103, |internal_change)
[3] = target: RNA polymerase;NusA;NusB;NusEdelta (S10 lacking the ribosome binding loop);NusG;SuhB (Escherichia coli;Escherichia …, UniProt P0A7Z4;P0A8V2;P0A8T7;P0A800;P0AFF6;P0A780;P0A7R5;P0AFG0;P0ADG4 …, |||internal_change||)
SuhB [4] = target: T1, SuhB; remark: listed apart in the source

B1: rrnG RNA (structured_RNA)
RNA: GGGCCGCGCCGCUGAGAAAAAGCGAAGCGGCACUGCUCUUUAACAAUUUAUCAGACAAUCUGUGUGGG
- binding result (SuhB [1]): binds
- binding result [2]: binds

B2: rrnG-EC scaffold (T-DNA, NT-DNA, rrnG RNA) (mixed)
DNA 1: ATCCGTATCTTCGAGTGCCCACACAGATTGTCTCATAAATTGTTAAAGAGCAGTGCCGC
DNA 2: GCGGCACTGCTCTTTAACAATTTATCAGACTTGTCCACGCTCGTCTCGAAGATACGGAT
RNA: GGGCCGCGCCGCUGAGAAAAAGCGAAGCGGCACUGCUCUUUAACAAUUUAUCAGACAAUCUGUGUGGG
- binding result [3]: binds

Binder: UUUUUGAGUCUGCGGCGCGCG (ssRNA) [random RNA]
- binding result (SuhB [4]): no binding

Reference: paper PMC6614797
